Measured values: patent publication US20240263161A1 (UNIVERSITY OF COPENHAGEN, published 2024)

Key:
[1] = biological target: membrane bound MUC1 TR reporter on HEK293 WT cells (core2 O-glycans) (human) (UniProt P15941); assay: cell-based or functional assay
[2] = biological target: secreted purified MUC1 TR reporter, WT glycoform (core2 sialylated O-glycans, HEK293 WT) (human) (UniProt P15941); assay: cell-based or functional assay
[3] = biological target: T1, secreted purified MUC5AC TR reporter, WT glycoform (core2 sialylated O-glycans, HEK293 WT) (human, UniProt P98088 2708-2850); assay: microscale thermophoresis (MST), […]
T1 sequence: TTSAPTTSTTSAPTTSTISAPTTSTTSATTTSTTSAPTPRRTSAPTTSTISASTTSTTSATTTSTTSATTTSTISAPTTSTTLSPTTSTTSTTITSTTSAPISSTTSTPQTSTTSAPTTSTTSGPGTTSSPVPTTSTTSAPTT

[4] = biological target: T2, secreted purified MUC5AC TR reporter, Tn glycoform (human, UniProt P98088 2708-2850); assay: microscale thermophoresis (MST), […]
T2 sequence: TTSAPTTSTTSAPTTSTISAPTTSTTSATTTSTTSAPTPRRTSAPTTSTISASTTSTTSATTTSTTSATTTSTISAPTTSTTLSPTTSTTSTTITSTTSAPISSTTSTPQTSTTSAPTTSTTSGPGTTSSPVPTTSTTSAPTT

[5] = biological target: secreted purified MUC1 TR reporter, WT glycoform (core2 sialylated O-glycans, HEK293 WT) (human, UniProt P15941 121-260); assay: microscale thermophoresis (MST), […]
Sequence of secreted purified MUC1 TR reporter, WT glycoform (core2 sialylated O-glycans, HEK293 WT) (P15941 121-260): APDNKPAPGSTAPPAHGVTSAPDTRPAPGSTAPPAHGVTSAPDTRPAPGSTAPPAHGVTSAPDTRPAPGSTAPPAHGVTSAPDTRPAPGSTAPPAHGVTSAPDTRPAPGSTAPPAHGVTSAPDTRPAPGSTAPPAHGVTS

[6] = biological target: secreted purified MUC21 TR reporter, Tn glycoform (human, UniProt Q5SSG8 130-278); assay: ELISA with purified secreted reporters
Sequence of secreted purified MUC21 TR reporter, Tn glycoform (Q5SSG8 130-278): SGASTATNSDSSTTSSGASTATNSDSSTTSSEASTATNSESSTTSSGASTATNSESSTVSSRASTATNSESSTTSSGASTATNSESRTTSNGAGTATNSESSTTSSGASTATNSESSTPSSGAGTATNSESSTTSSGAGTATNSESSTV

Sequence of membrane bound MUC1 TR reporter on HEK293 WT cells (core2 O-glycans) (human) (P15941 121-260 limits assumed): as the sequence (P15941 121-260) above
Sequence of secreted purified MUC1 TR reporter, WT glycoform (core2 sialylated O-glycans, HEK293 WT) (human) (P15941 121-260): as above

Which cleavage, dose titration on cells (flow cytometry) [1] does the source give for “StcE (Secreted protease of C1 esterase inhibitor) wildtype, recombinant (from UniProt O82882 36-898) (enzyme)” here?
The cleavage, dose titration on cells (flow cytometry) was greater than 10 µg/mL.

And the cleavage, dose titration with the isolated reporter (SDS-PAGE) [2]?
The cleavage, dose titration with the isolated reporter (SDS-PAGE) was greater than 10 µg/mL.

B1: AlexaFluoro647 labelled MBP-X409 (other)
chain: EGCIVSVNSGKRYCLPVGQRSGYSLPDWIVGQEVYVDSGAKAKVLLSDWDNLSYNRIGEFVGNVNPADMKKVKAWNGQYLDFSKPRSMRVVYK
With B1 as the molecule, how does the Kd [3] read?
The Kd was 14 nM.

What about the Kd [4] of the same molecule?
The Kd was 37 nM.

What about the Kd [5] of the same molecule?
Its Kd is 2600 nM.

And the “fold lower binding affinity (against MUC5Ac)” value [5]?
Its value is greater than 1000 fold.

B2: X409 module of Escherichia coli O157:H7 StcE (tags of the construct not stated) (other)
chain: EGCIVSVNSGKRYCLPVGQRSGYSLPDWIVGQEVYVDSGAKAKVLLSDWDNLSYNRIGEFVGNVNPADMKKVKAWNGQYLDFSKPRSMRVVYK
Does B2 bind [6]?
Result: binds
